Patent US20220267402A1 (SERPENTIDE, published 2022)

B1: p9: hGLP1R ECD (1-116)-3xG4S-RGER-Trulicity (lot U2243DL140-14/P9EA001) (Fc fusion)
chain: RPQGATVSLWETVQKWREYRRQCQRSLTEDPPPATDLFCNRTFDEYACWPDGEPGSFVNVSCPWYLPWASSVPQGHVYRFCTAEGLWLQKDNSSLPWRDLSECEESKGGGGSGGGGSGGGGSRGERHGEGTFTSDVSSYLEEQAAKEFIAWLVKGGGGGGGSGGGGSGGGGSAESKYGPPCPPCPAPEAAGGPSVFLFPPKPKDTLMISRTPEVTCVVVDVSQEDPEVQFNWYVDGVEVHNAKTKPREEQFNSTYRVVSVLTVLHQDWLNGKEYKCKVSNKGLPSSIEKTISKAKGQPREPQVYTLPPSQEMTKNQVSLTCLVKGFYPSDIAVEWESNGQPENNYKTTPPVLDSDGSFFLYSRLTVDKSRWQEGNVFSCSVMHEALHNHYTQKSLSLSLG

What was measured:
[1] = target: human GLP1 receptor (on HEK293-CNG-HuGLP1R stable cells) (human) (UniProt P43220); test: cell-based or functional assay
[2] = target: human GLP1 receptor (on HEK293-CNG-HuGLP1R stable cells) (human, UniProt P43220 24-463); test: cell-based or functional assay

| Molecule | EC50, cAMP bioassay on HEK293-CNG-HuGLP1R cells [1] [µM] | EC50, cAMP bioassay on HEK293-CNG-HuGLP1R cells (after Factor Xa predigestion) [2] [µM] |
| --- | --- | --- |
| Eli Lilly Trulicity (Lot#02448599) (Fc fusion) | 0.022 |  |
| B1 |  | 0.0176 |
